Reference: the nanobody polyreactivity screen of Harvey et al. (2022)

Assay: yeast display, Sf9 membrane polyspecificity reagent, FACS + sequencing; frameworks hold sequencing errors
Procedure, shortened: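 Polyreactivity labels are assigned by the sorting gate from which each nanobody was recovered. The gates were low and high (top ~1%), set on anti-HA fluorescence for expression and streptavidin fluorescence for reagent binding. Before sorting, galactose-induced (36–48 hours) yeast display cells were stained for 1 hour at 4 °C with 10% biotinylated, detergent-solubilized Sf9 membrane reagent.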

In the case of “QVQLVESGGGLVQAGGSLRLSCAASGITLNRNAMGWYRQAPGKERELVAAISSGGNTYYADSVKGRFSISRDNAKNTVYLQMNSLKPEDTEVYYCAARQVQAPRSIGFYFWGQGTQVTVSS”, the “polyreactivity (PSR sort gate)” value is reported as “high polyreactivity”.
With “QVQLVESGGGLVQAGGSLRLSCAASGFIFRRYAMGWYRQAPGKDRALVAAITIGGSTSYADSVKGRFTISRDNAKKTVYVQMNSLKPEDTAVYYCNAGSFSRKARRYDYWGQGTQVTVSS” the “polyreactivity (PSR sort gate)” value was “high polyreactivity”.
In the case of “QVQLVESGGGLVQAGGSLRLSCAASGSTFFDNAMGWYRQAPGKERELVAAISWSGARTYYADSVKGRFTISRDNAKNTVYLQMNSLKPEDTAVYYCAARFYVSNSRKSARNYWGQGTQVTVSS”, the “polyreactivity (PSR sort gate)” value is reported as “high polyreactivity”.
With “QVQLVESGGGLVQAGGSLRLSSAASGRTFNYYTMGWYRQAPGKERELVAAITNGGSTNYADSVKGRFTISRDNAKNTVYLQMNSLKPEDTAVYYCNADAFAFRTLHYDYWGQGTQVTVSS” the “polyreactivity (PSR sort gate)” value was “low polyreactivity”.
For “QVQLVESGGGLVQAGGSLRLSCAASGRIFYYYAMGWYRQAPGKERELVATISSSGGSTYYADSVRGRFTISRDNAKNTVYLQMNSLKPEDTAVYYCAARVPLWSRGRTTWPKSQYEYWGQGTQVTVSS”, the “polyreactivity (PSR sort gate)” value was “high polyreactivity”.
For “QVQLVESGGCLVQAGGSLSLSCAASGFTFTYYDMGWYRQAPGKERELVAAITRRGGRTYYADSVKGRFTISRDNAKNTVYLQMNSLKPEDTAVYYCNADEYGGSTGRKGRYNYWGQGTQVTVSS”, the “polyreactivity (PSR sort gate)” value was “low polyreactivity”.
For “QVQLVESGGGLVQAGGSLRLSCAASGYTIRYNALGWYRQAPGKERELVAAITQRSGSTYADSVKGRFTISRDNAKNTVYLQMNSLKPEDTAVYYCAARTPGYKLYDYWGQGTQVTVSS”, the “polyreactivity (PSR sort gate)” value was “low polyreactivity”.
In the case of “QVQLVESGGGLVQAGGSLRLSCAASGRIFWTYAMGWYRHAPGKERELVAVISIGGTTYYADTVKGRFTISRDNAKNTVYLQMNSLKPEDTAVYYSAAPPSNATGFLSYDYWGQGTQVTVSS”, the “polyreactivity (PSR sort gate)” value is reported as “low polyreactivity”.
In the case of “QVQLVESGGGLVQAGGSLRLSCAASGITFHRYAMRWYRQAPGKERELVAAINGGGGSTYYADSVKGRFTISRDNAKNTVYLQMNSLKPEDTAVYYCAAEVQNGVHIYDYWGQGTQVTVSS”, the “polyreactivity (PSR sort gate)” value is reported as “high polyreactivity”.
With “QVQLVESGGGLVQAGGSLRLSCAASGRILPYYAMGWYRQAPGKERELVAAISYSGGSTYYADSVKGRFTLSRDNGKNTFYLQMNSLKPEDTAVYYCNARPVKASYVGYNYWGQGTQVTVSS” the “polyreactivity (PSR sort gate)” value was “high polyreactivity”.
In the case of “QVQLVESWGGLVQAGGSLPLSCAASGFTFVSYAMGWSRQAPGKERELVAAISKRGGSTSYADSVKGRFTISRDNAKNTVYLQMNSLKPEDTAVYYCYKRSYAWSPHVDYWGQGTQVTVSS”, the “polyreactivity (PSR sort gate)” value is reported as “high polyreactivity”.
With “QVQLVESGGGLVQAGGSLRLSCAASGIIFARYAMGWYRQAPGKERELVAAITSGGGTSYADSVKGRFTISRDNAKNTVYLQMNSLKPEDTAVYYCNADGYLAERFVIRLDEYRDYDYWGQGTQVTVSS” the “polyreactivity (PSR sort gate)” value was “low polyreactivity”.
In the case of “QVQLVESGGGLVQAGGSLRLSCAASGSIFTRNAMGWSRQAPGKEREFVAAISSSGVSTYYADSVKGRFTISRDNAKNTVYLQMNSLKPEDTAVYYCAARWGTKSGRYDYWGQGTQVTVSS”, the “polyreactivity (PSR sort gate)” value is reported as “high polyreactivity”.
With “QVQLVESGGGLVQAGGSLRLSCAASGSTFWKYAMGWYRQAPGKEREFVAAITRSGGNTYYADSVKGRFTISRDNAKNTVYLQMNSLKPEDTALYYCAIVYKLITSYRGFGYWGQGTQVTVSS” the “polyreactivity (PSR sort gate)” value was “high polyreactivity”.
In the case of “QVQLVESGGGLVQAGGSLRLSCAASGSILSYNAMGWSRQAPGKERELVATITGTGGSTRYADSVKGRFTISRDNAKNTVYLQMNSLKPEDTAVYYCATAAWWYYRIYHEFGYWGQGTQVTVSS”, the “polyreactivity (PSR sort gate)” value is reported as “high polyreactivity”.
For “QVQLVESGGGLVQAGGSLRLSCAASGRTIYRYALGWYRQAHGKERELVSRIRSGGSTNYADSVKGRFTISRDNAKNTVYLQMNSLKPEDTAVYYCAARVLDLGKNTYYRYALGYWGQGTQVTVSS”, the “polyreactivity (PSR sort gate)” value was “high polyreactivity”.
For “QVQLVESAGGLVQAGGSLRLTCAASGLTFRVFAMGWYRQAPGKERELVAAISSRGGSTYYADSVKGRFTISRDNAKYTVYLQMNSLKPEDTAVYDCYARGQGGYWGQGTQVTVSS”, the “polyreactivity (PSR sort gate)” value was “high polyreactivity”.
In the case of “QVQLVESGGGLVQAGGSLRLSCAASGFTFGYYAMGWYRQAPGKERELVAAISKSGGSTYYADSVKGRFTISRDNAKNTVYLQMNSLKPEDCAVYYCAAIASIRGYYYWGQGTQVNVSS”, the “polyreactivity (PSR sort gate)” value is reported as “high polyreactivity”.
In the case of “QVQLVESGGGLVQAGGSLRLSCAASGRIFGLNAMGWYRQAPGKERELVAAIDRSGASTYYADSVKGRFTISRDNAKNTVYLQMNSLKPEDTAVYYCAAESYLSGEEYDYWGQGTQVTVSS”, the “polyreactivity (PSR sort gate)” value is reported as “high polyreactivity”.
For “QVQLVESGGGLVQAGGSLRLSCAASGRIFFRNAMGWYRQAPGKERELVAAITWNGGSTYYADSVKGRFTISRDIAKNTVYLQMNSLKPEDTAVYYCNKAGVSYRSQYYYWGQGTQVTVSS”, the “polyreactivity (PSR sort gate)” value was “high polyreactivity”.
In the case of “QVQLHESGGGLVQAGGGLRLSCAASGSISSTGFMGWYRQAPGKEREPVAAIAPGTTTYYADSVKGRFTISRDNAKNTVYLQMNSLRPEDTAVYDCADFTDNRVAFLYWGQGTQVTVSS”, the “polyreactivity (PSR sort gate)” value is reported as “low polyreactivity”.
In the case of “QVQLVESGGGLVQAGGSLRLSCAASGFISYPYAMGWSRPAPGKERELVAAISSSGGSTYYADSVKGRFTISRDNAKNTVYLQMNSLIPEDTAVYYCAARGFYRSYYWGQGTHVTVSS”, the “polyreactivity (PSR sort gate)” value is reported as “high polyreactivity”.
In the case of “QVQLVESGGGLVQAGGSLRLSCAASGRISSYYAMGWYRQAPGKEREFVAAITRSSGSTYYADSVKGRFTISRDNAKNTVYLQMNSLKPEDTAVYYCAADYYWTTFSRFDYWGQGTQVTVSS”, the “polyreactivity (PSR sort gate)” value is reported as “low polyreactivity”.
In the case of “QVQLVESGGGLVQAGGSLRLSCAASGFIDAYTMGWYRQAPWKERELVAAITWSGGRTYYADSVKGRFTISRDNAKNTVYLQMNSLKPEDTAVYYCAKDVTPYSPDDDYWGQGTQVTVSS”, the “polyreactivity (PSR sort gate)” value is reported as “low polyreactivity”.
For “QVQLVDSGGGLVQAGGSLRLSCAASGRTFYTNAMGWYRQAPRKERQLVAAITRGGSTYYADSVKGRFTISRDNAKNTVYLQMNSLKPEDTAVYYCAADGRFRSHTFYYWGQGTQVTVSS”, the “polyreactivity (PSR sort gate)” value was “high polyreactivity”.
With “QVQLVESGGGLVQAGGSLRLICAASGRTYHYYTLGWYRQSPGKERELVARISLGVGSTYYADSVKGRFTISRDNAKNTVDLQMYTLIPEDTAVYYCNAVWYKSFVKGVYGRVDWGQGTQVTVSS” the “polyreactivity (PSR sort gate)” value was “low polyreactivity”.
In the case of “QVQLVESGGGLVQAGGSLRLSCAASGSTFTFNAMVWYRQAPGKERELVAAITTSAGSTYYADSVKGRFTISRDNAKNTVYLQMSSLKPEDTAVYYCAARYVPPWGRRYYYWGQGTQVTVSS”, the “polyreactivity (PSR sort gate)” value is reported as “high polyreactivity”.
With “QVQLEESGRGLVQAGGSLRLSCAASGFIFYRNTMGWYRQAPGKERELVAAISVSGGSTNYADSVKGRFTISRDNAKNTVYLQINSLKPEVTAVYYCAARVRESLVYGGWDDYWGQGTQVTVSS” the “polyreactivity (PSR sort gate)” value was “high polyreactivity”.
With “QVQLVESGGGLVQAGGSLRLSCAASGSIFDVYTMGWSRQAPGKERELVAAISKRSGRTYYADSVKGRFTISRDNAKNTVYLQMNSLKPEDTAVYYCAARGYPTTAVTYDYWGQGTQVTVSS” the “polyreactivity (PSR sort gate)” value was “low polyreactivity”.
For “QVQLVESGGRLVQAGGSLRLSCAASGSIFNAYAMGWYRQAPGKEREFVAVITSNGGITYYADSVKGRFTISRDNAKNTVYLQMNSLKPEDTAVYYCAAYEIYYEFDSWGQGTQVTVSS”, the “polyreactivity (PSR sort gate)” value was “low polyreactivity”.
In the case of “QVQLVESGGGLVQAGGSLRLSCAASGIILSDYAMGWYRPAPGKERELVAAITSGGGSTYYADSVKGRFTISRDNAKNTVYLQMNSLNPEDTAVYFCAADLTSYYGGDYWGQGTQVTVSS”, the “polyreactivity (PSR sort gate)” value is reported as “low polyreactivity”.
With “QVQLVESGGGLGQAGGSLRLSSAASGGTFGSNTMGWYRQAPGKERELVAAITSGVSTYYADSVKGRFTISRDNAKNTVYLQMNSLKPEDTAVYYCAADTTQLQGVEGDYWGQGTQVTVSS” the “polyreactivity (PSR sort gate)” value was “low polyreactivity”.
With “QVQLVESGGGLVQAGGSLRLSCAASGFIFRFYAMGWYRQAPGKERELVATISKRGGTTYYADSVKGRFTISRDNAKNTVYLQMNSLKPEDTAVYYCAVRLYLEMDYWGQGTQVTVSS” the “polyreactivity (PSR sort gate)” value was “high polyreactivity”.
For “QVQLVESGGGLVQAGGSLRLSCAASGSIFYANAMGWYRQAPGKERELVAAIDGGSTYYADSVKGRFTISRDNAKNTVYLQMNSLKPEDTAVYYCAADYFNYRGYTYLGDYWGQGTQVTVSS”, the “polyreactivity (PSR sort gate)” value was “low polyreactivity”.
In the case of “QVQLVESGGGLVQAGGSLRLSCAASGSTFQYYARGWYRQAPGKETELVAAISDRDGGTFYADSVKGRFTISRDNAKNTVYLQMNSLKPEDTAVYYCATDAVGFRLDDNGYWGQGTQVTVSS”, the “polyreactivity (PSR sort gate)” value is reported as “low polyreactivity”.
In the case of “QVQLVESGGGLVQAGGSLRLSCAASGSTFHNYAMGWYRQAPGKERELVAGISVRGGGTYYADSVKGRFTISRDNAKNTVYLQMNSLKPEDTAVYYCAPDFYWFWTYGTLWYGYEYWGQGTQVTVSS”, the “polyreactivity (PSR sort gate)” value is reported as “high polyreactivity”.
For “QVQLVESGGGLVQAGGSLRLSCAASGSIFDYYAMGWYRPAPVKERELVAAISDSGSTYYADSVKGRFTISRDNAKNTVYLQMNSLKPEDTAVYYCAAVLWSPYLSEPLETYEYWGQGTQVTVSS”, the “polyreactivity (PSR sort gate)” value was “low polyreactivity”.
For “QVHLVESGGGLVQAGGSLRLSCAASGSIFPYYVMGWYRQAPGKERELVAAISSGGNTYYADSVKGRFTISRDNAKNTVYLQMNSLKPEDTAVYYCNADKSYFVLLFGGYDYWGQGTQVTVSS”, the “polyreactivity (PSR sort gate)” value was “high polyreactivity”.
For “QVQLVESGGGLVQAGGSLRLSCAPSGSIFYVNAMGWYRQAPGKERELVAAITYDTGRTYYADSVKGRFTISRDNAKNTVYLQKNSLKPEDTAVYYCAVRPGYYWGYWPRFGYWGQGTQVTVSS”, the “polyreactivity (PSR sort gate)” value was “low polyreactivity”.
For “QVQLVESGGGLVQAGGSLRLSCAASGIIFGYYAMGWYRQAPGKERELVAAISSIGGSTYYADSVKGRFTISRDNAKNTVYLQMNSLKPEDTAVYYCNAASSRWPEYDYWGQGTQVTVSS”, the “polyreactivity (PSR sort gate)” value was “high polyreactivity”.
With “QVQLVESGGGLVQAGGSLRLSCAASGFIFWFNALGWYRQAPGKERELVATISWSDTSTYYADSVKGRFTISRDNAKNTVYLQMNSLKPEDTAVYYCATDGRETWLPEYYWGQGTQVTVSS” the “polyreactivity (PSR sort gate)” value was “low polyreactivity”.
For “QVQLVESVGGLVQAGGSLRLSCAASGFTFANYAMGWYRQAPGKERELVAAITWSGGRTYYADSVKGRFTISRDNAKNTVYLQMNSLKQEYTAVYYCAAGLGTLYGYWGQGTQVTVSS”, the “polyreactivity (PSR sort gate)” value was “high polyreactivity”.
In the case of “QVHLVESGGGLVQAGGSLRLSCASTGRISTYYTMVWYRQAPGKERELVAAISWSGTSTYYADSVKGRFTISRDNAKNTVYLQMNSLKPEDTAVYYCNAYFRPRYGYWGQGTQVTVSS”, the “polyreactivity (PSR sort gate)” value is reported as “high polyreactivity”.
